# Assay results taken from publication PMC6669920, “Identification of a basal system for unwinding a bacterial chromosome origin”.
# Legend:
# [1] = target: T1, DnaA wild-type (Bacillus subtilis, UniProt P05648 1-446); experiment: EMSA; 1 mM ADP; single shifted species; EMSA: 25 nM scaffold, 0-250 nM DnaA, 10 mM HEPES-KOH pH 8, 100 mM potassium glutamate, 1 mM magnesium acetate, 30% glycerol, 10% DMSO, 1 mM ADP or ATP, 20°C 2 h; 6% PAGE in 45 mM Tris, 45 mM boric acid, 5 mM MgCl2; settings: protein: recombinant; tags: N-terminal His-tag removed with Factor Xa; label: 5' Cy3 on strand 1; 5' Cy5 on strand 2; blunt; 3 strands, nick between strands 1 and 2, both annealed to strand 3
# [2] = target: DnaA I190A (Bacillus subtilis, UniProt P05648 1-446, I190A); experiment: EMSA; 1 mM ADP; shift similar to wild-type; EMSA: 25 nM scaffold, 0-250 nM DnaA, 10 mM HEPES-KOH pH 8, 100 mM potassium glutamate, 1 mM magnesium acetate, 30% glycerol, 10% DMSO, 1 mM ADP or ATP, 20°C 2 h; 6% PAGE in 45 mM Tris, 45 mM boric acid, 5 mM MgCl2; settings: protein: recombinant; tags: N-terminal His-tag removed with Factor Xa; label: 5' Cy3 on strand 1; 5' Cy5 on strand 2; blunt; 3 strands, nick between strands 1 and 2, both annealed to strand 3
# [3] = target: T1, DnaA wild-type; experiment: EMSA; 1 mM ADP; up to 250 nM DnaA; EMSA: 25 nM scaffold, 0-250 nM DnaA, 10 mM HEPES-KOH pH 8, 100 mM potassium glutamate, 1 mM magnesium acetate, 30% glycerol, 10% DMSO, 1 mM ADP or ATP, 20°C 2 h; 6% PAGE in 45 mM Tris, 45 mM boric acid, 5 mM MgCl2; settings: protein: recombinant; tags: N-terminal His-tag removed with Factor Xa; label: 5' Cy5 on strand 2; blunt; 3 strands, nick between strands 1 and 2, both annealed to strand 3
Binder,binding result [1],binding result [2],binding result [3]
"Wild-type short scaffold (DnaA-box#6/7 + DnaA-trios), oHM752/oHM590/oHM558 (dsDNA) DNA 1: ACTTATCCACAAATCCACAGGCCC DNA 2: TACTATTACTTCTACTA DNA 3: TAGTAGAAGTAATAGTAGGGCCTGTGGATTTGTGGATAAGT",binds,binds,–
"ΔDnaA-boxes long scaffold, oHM753/oHM590/oHM754 (dsDNA) DNA 1: CGTTCGGCTGCGGCGAGCGGTATCAGCTCACTCAAAGGCGGTAATACGGCTTCCTTGCTTCCTTGCGGCCC DNA 2: TACTATTACTTCTACTA DNA 3: TAGTAGAAGTAATAGTAGGGCCGCAAGGAAGCAAGGAAGCCGTATTACCGCCTTTGAGTGAGCTGATACCGCTCGCCGCAGCCGAACG",–,–,no binding
